Drawing on a protein production outcome set (Wang et al. 2014), this text covers protein production for 20 sequences.

A short description of the data set: label from the status in PepcDB records.
Regarding “MSKKLVLLIISILCFTALTGCWIVRSDLSGDIIIGDGHGGTSHSIIKYNPATNKFESVEPGLYYEVEYNDDKSKILCYRFLENSEVRRFEICEYDIKSKKFGEPIFIPGDSQKFKGSVKYVPNSDRISFVLDYELHIYDRSSGTLTKLFEVAFNSYSWDNTGKKLLYGDYDENIYIYDMESNEKRKILTGICPVYSNSNEYIAYIGIDQRLTVYNVNTGKKWRTVPVDDSARYIFSPDDKYILLGTEYADLMSFPHYTLYILDYKTGKKKRLFGGEGNVPSLDWK”, the protein production entry is reported as “failed”.

Consider “MSKLIFSVLISVYYNESISYFKKSLDSILYQTLLPAEVVLVKDGILTDDLNCIVKEYSQKYPILKVISLPVNQGLGKALNEGLKHCSYDLVARMDTDDIAKPDRFEKQIRVFQEHPELDVVGAWIDEFEETTSNIISTRKLPEVHDDICQFAKKRNPENHPVIMFRKQAVLAAGGYQHFPLFEDYYLWIRMLQNGAKFYNIQESLLYFRFSPAMFKRRGGLKYVTTELRFQNQLRNLGFITSSEYLYNVFIRVITRMMPNTLRAILYKKALRK”, for which the protein production entry was “failed”. Regarding “MSKLSLIQQLKQQKLSVGILSANWLQLNEEVTTLLENQINVLHFDIADGQFSSLFTVGAIGIKYFPTHCFKDVHLMVRNQLEVAKAVVANGANLVTLQLEQYHDFALTIEWLAKQKTTYANQVYPVLIGACLCPETPISELEPYLDQIDVIQLLTLDPRNGTKYPSELILDRVIQVEKRLGNRRVEKLINIDGSMTLELAKYFKQGTHQIDWLVSGSALFSGELKTNLKVWKSSIM”, the protein production result is “not failed”. In the case of “MSKLSLKIGTYFLILALCIETIAFVSFYKSLSKMRIVEETDALLEKGNRYSKKIKSRERRDEYYKEMKHAEHNKNPKRPVYPEFDITNEAAHLVESESISNSDIAIIITDHNGKIISTSEPVTKDMQKQLTCKTETVPDGGLVVERNWKKSKFITTVSPLNTTKFQGKLYMLLKTSFLENMLLKLMNQFLIISVLTIILTTISVFVFSRVITEPLVKMKRATEKMSKLNKPIQLGIKRNDELGSLAKTIEDLSSELTYMKKERNEFLASVAHELLTPLTYMKGYAKVAKRDSLTKEEREEYLQIIEDETDSVTDLVQDLFMLVQLEQHQFVIKKQKVLLQPFLERMVEKTKTTLTNKQMQLHVYCKDDLEVCIDERRMEQVMLNLLHNAYQHSPENTAITIRVLMETDSFTISVQDEGEGIPEEDIPHIFDRFYRVDKSRTRATGGKGIGLAVAKEIVELHNGSILVTSQLGAGTNFIIELPFE” it was “failed”; in that of “MSKPEFIARQGRKPTGWLGHIVARVMARETRPENDRALSFLDLADGDSLIDIGCGHGETLFQADRIVRLSGSVGVDFSEVMLKRARARNRDAVWDTRMAFHCADTAALPFPDKRFGKALSVHTIYFWPNPAAHLAEAFRVLRRGGRFLFCYRSTADRRAVEEFPDTVYRFPSVQEVEEKLKLVGFLGPETTTEDIKGLEHHHHHH”, “failed”.

Take “MSKPKIAIIVGSTRAARFADVPTQWIAKIAKSHADIDVEVVDLRDFPLPFFDEVASSAWVPSTNEVAQRWQKKVAEFDGFIFTAAEYNHGPTAVLKNAIDYAANEWNKKPAGFVGYGSVGGARAVEQLRLHAVELQMAPVKSAVHIAWGDFLAVRQGEKKLEDLDHLNQAASALVNDVAWWAKALKKARAADVVDEEIKAA”: the protein production entry was “failed”.

With “MSKRILFIVGSFSEGSFNRQLAKKAETIIGDRAQVSYLSYDRVPFFNQDLETSVHPEVAHAREEVQEADAIWIFSPVYNYAIPGPVKNLLDWLSRSLDLSDPTGPSVLQDKIVTVSSVANGASPEEVFEDYRSLLPFIRMHLVDQLTGVPINSEAWSTGILKVSAEKLAELSAQADALLSAVENLEHHHHHH”, the protein production result is “not failed”. For the sequence “MSKTERDKIKVEMEIDPHLSWQEKLAVEEQEKLSPRLVYEIIRRDGVEELSRPTSTLIFSGITAGLVMSFSFVFKAVIASYLPIDAVWTDLITNIGYTIGFLIAILGHLQLFTENTITTVIPLFKPFSLDKLKAVARLWSIVILTNIFGTALSSLFFLTTDLFSPEVDHALDEIAHHVASFTAWENFLKGVLSGLLIAALVWMLPSVNNKILLIFMITYLIGLGDFTHVVVGSVEVAYLVWQGQTSLSEYFFQFLVPTTLGNIIGGTGIFTLLIYGQVNQELEE”, the protein production result is recorded as “failed”. In the case of “MSKVDTIQEKLIPPIMKFANSKIITAIKDGVIITMPLTLVGSIFLLIANFPIKSWNSWMTAIFGPNWAVPLTQVSGSTFDIMAIAAVIGIAAQYSKNEGQDPVTAGLLGAVAFLIIMPSYSPINIGDKVGGIVMKHADKVQSVIPKAWTGGKGMIAALIIGVLTGYIYSWFLKRDIRIKLPESVPSGVSNAFSALIPGAVIITGSMLIFIFFNIVTGATALEWIYKVLQIPLQGITDSLGGAIAIPFVISFFWWFGVHGATLIGGVMNSIYQANTLANQDVFKAGHKLIASGAGKNAHIVCQQFQDNFVTLGGSGITLGLVAACFLFARSQRLKQLGKLALVPGCFNINEPVLFGLPIVLNPLMFIPFLICPLVSGILTYFAIYTGLVPCFTAVQAIWTTPPVLSGLIVAGWRGAVLQLIIIAIAAIVYFPFFKSLDKQYYQEEISGEAE” it was “failed”; in that of “MSKVNQQDIDKLIELVGGRGNIATVSHCITRLRFVLNDPAIARPKEIEQLRMVKGCFTNAGQFQVVIGTEVGDYYKALLATTGQTSADKEQVKQA”, “not failed”; in that of “MSLALLLGYELPLTGANAAYGRVFQEAARLQLDRFNAAGGVGGRPVDILYADSRDDADQARTIARAFVDDPRVVGVLGDFSSTVSMAAGSIYGKEGMPQLSPTAAHPDYIKISPWQFRAITTPAFEGPNNAAWMIGDGFTSVAVIGVTTDWGLSSAQAFRKAFELRGGAVVVNEEVPPGNRRFDDVIDEIEDEAPQAIYLAMAYEDAAPFLRALRARGSALPVYGSSALYSPKFIDLGGPAVEGVRLATAFVLGASDPVVVEFVSAYETLYGAIPTLFAAHGYDAVGIMLAAVGRAGPEVTRESLRDALAATDRYAGVTGITRFDPETRETTKILTRLVVREGDFRVIDREGHHHHHH”, “not failed”. In the case of “MSLAMQDFRPGVYRHYKGDHYLALGLARADETDEVVVVYTRLYARAGLPMSTRLLRIWNETVDTGAGPQPRFAYVGHVTPEQGEGHHHHHH”, the protein production entry was “not failed”.

Take “MSLAPRPRILICEDDPDIARLLNLMLEKGGFDSDMVHSAAQALEQVARRPYAAMTVDLNLPDQDGVSLIRALRRDSRTRDLAIVVVSANAREGELEFNSQPLAVSTWLEKPIDENLLILSLHRAIDNMAEGKEGHHHHHH”: the protein production result is listed as “not failed”. “MSLATQQLGIIGLFVPTFFGSYYGTILKQTDLELRAVHRHVVVATGCGESTPREQALEAVRFLIGRDCDGVVVISHDLHDEDLDELHRMHPKMVFLNRAFDALPDASFCPDHRRGGELAAATLIEHGHRKLAVISGPFTASDNVERLDGFFDELARHGIARDSVPLIESDFSPEGGYAATCQLLESKAPFTGLFCANDTMAVSALARFQQLGISVPGDVSVIGYDDDYSAAYAAPALTSVHIPTAELTQNAVRWLINQCYGTKWEIFREFPVTVSMRASVAREGHHHHHH”: the protein production result was “not failed”. “MSLAWLISEFASVGDVTVRALRYYDKINLLKPSDYTEGGHRLYTKDDLYVLQQIQSFKHLGFSLGEIQNIILQRDIETEVFLRQMHFQREVLLAEQERIAKVLSHMDEMTKKFQKEERVNVALFSSFLQTFIWEKENKEGHHHHHH”: the protein production entry was “not failed”. As for “MSLDFRSADFLRTHISDTMAFYHPRCIDSAGGFFHYFRDDGSIYNATHRHLVSSTRFVFNYAMAYLQFGTAEYLDAVHHGLSYVRDVHRNPATGGYAWTLCDDRVEDDTNHCYGLAFVMLAYSCGLKVGIKQAREWMDETWCLLERHFWDAEYGLYKDEADAQWNFTRYRGQNANMHMCEAMLAAYEASGEQRYLERALVLADRITRRQAAKADGLVWEHYDMRWEVDWDYNRDNPKHLFRPWGFQPGHQTEWAKLLLILDRYIEVEWLVPVARSLFDVAVARSWDAVRGGLCYGFAPDGTICDDDKYFWVQAESLAAAALLATRSGDERYWQWYDRLWAYAWQHMVDHRYGAWYRLLDGDNRKYNDEKSPAGKTDYHTMGACHEVLNVVWTKSEGHHHHHH”, the protein production result is listed as “not failed”. On to “MSLDIQSLDIQCEELSDARWAELLPLLQQCQVVRLDDCGLTEARCKDISSALRVNPALAELNLRSNELGDVGVHCVLQGLQTPSCKIQKLSLQNCCLTGAGCGVLSSTLRTLPTLQELHLSDNLLGDAGLQLLCEGLLDPQCRLEKLQLEYCSLSAASCEPLASVLRAKPDFKELTVSNNDINEAGVRVLCQGLKDSPCQLEALKLESCGVTSDNCRDLCGIVASKASLRELALGSNKLGDVGMAELCPGLLHPSSRLRTLWIWECGITAKGCGDLCRVLRAKESLKELSLAGNELGDEGARLLCETLLEPGCQLESLWVKSCSFTAACCSHFSSVLAQNRFLLELQISNNRLEDAGVRELCQGLGQPGSVLRVLWLADCDVSDSSCSSLAATLLANHSLRELDLSNNCLGDAGILQLVESVRQPGCLLEQLVLYDIYWSEEMEDRLQALEKDKPSLRVIS”, for which the protein production result is given as “not failed”. For “MSLDKVLVGYWHNWKSTGKDGYKGGSSADFNLSSTQEGYNVINVSFMKTPEGQTLPTFKPYNKTDTEFRAEISKLNAEGKSVLIALGGADAHIELKKSQESDFVNEIIRLVDTYGFDGLDIDLEQAAIEAADNQTVIPSALKKVKDHYRKDGKNFMITMAPEFPYLTSSGKYAPYINNLDSYYDFINPQYYNQGGDGFWDSDLNMWISQSNDEKKEDFLYGLTQRLVTGTDGFIKIPASKFVIGLPSNNDAAATGYVKDPNAVKNALNRLKASGNEIKGLMTWSVNWDAGTNSNGEKYNNTFVNTYAPMLFNNEGHHHHHH”, the protein production entry is listed as “not failed”. “MSLDLSLNNLYSISTVELIQAFANTPASVTSLNLSGNSLGFKNSDELVQILAAIPANVTSLNLSGNFLSYKSSDELVKTLAAIPFTITVLDLGWNDFSSKSSSEFKQAFSNLPASITSLNLRGNDLGIKSSDELIQILAAIPANVNSLNLRGNNLASKNCAELAKFLASIPASVTSLDLSANLLGLKLEHHHHHH”: the protein production result was “failed”.

For “MSLDMSPVQGKLDGRIRAQNPEEFLERLSQEYHFQWFVYNDTLYVSPSSEHTSARIEVSPDAVDDLQTALTDVGLLDKRFGWGSLPDEGVVLVRGPAKYVEFVRDYSKKVEKPDEKADKQDVVVLPLKYANAADRTIRYRDQQLVVAGVASILQELLESRSRGESIDSVNLLPGQGSSVANSTGVAAAGLPYNLGSNGIDTGALQQGIDRVLNFNSKKTAKGHASGKANIRVSADVRNNSVLIYDLPERKAMYQKLVKELDVPRNLIEIDAVILDIDRNELAELSSRWNFNAGSVGGGANLFDAGTSSTLFLQNASKFSAELHALEGNGSASVIGNPSILTLENQPAVIDLSRTEYLTATSERAADILPITAGTSLQVIPRSLDNDGKPQVQMIVDIEDGQIDVSTINDTQPSVRRGNVSTQAVIAEHGSLVIGGFHGLEANDRIHKIPLLGDIPYIGKLLFQSRSRELSQRERLFILTPRLIGDQVNPARYVQNGNPHDVDDQMKKIKERRDGGELPTRGDIQKVFTQMIDGAAPEGLRAGQTLPFETDSLCDPGEGLTLDGQRSQWFVKKDWGVAVVVARNNTDKPVRIDESRCGGRWVIGVAAWPHAWLQPGEESEVYIAVRQPQISKMAKESRPSLLRGAKP”, the protein production result is reported as “failed”.
